Reference: US20260226191A1 (SHANDONG SIMCERE BIOPHARMACEUTICAL, published 2026)

Experiments:
[1] = target: T1, Human MUC17 ECD4131-his (His-tagged human MUC17 protein extracellular region fusion protein) (human, UniProt Q685J3 4131-4393); experiment: SPR (Biacore 8K), antibody captured on Protein A, antigen injected, 25 C, 1:1 model
T1 construct: also called human MUC17-his protein; Human MUC17-ECD(4131-4393)-His protein

[2] = target: T2, Cyno MUC17 ECD3577-mFc (mFc-tagged cynomolgus monkey MUC17 protein extracellular region fusion protein) (cynomolgus monkey); experiment: as above
T2 construct: also called monkey MUC17-mFc protein; Monkey MUC17-ECD3577-mFc protein
T2 chain: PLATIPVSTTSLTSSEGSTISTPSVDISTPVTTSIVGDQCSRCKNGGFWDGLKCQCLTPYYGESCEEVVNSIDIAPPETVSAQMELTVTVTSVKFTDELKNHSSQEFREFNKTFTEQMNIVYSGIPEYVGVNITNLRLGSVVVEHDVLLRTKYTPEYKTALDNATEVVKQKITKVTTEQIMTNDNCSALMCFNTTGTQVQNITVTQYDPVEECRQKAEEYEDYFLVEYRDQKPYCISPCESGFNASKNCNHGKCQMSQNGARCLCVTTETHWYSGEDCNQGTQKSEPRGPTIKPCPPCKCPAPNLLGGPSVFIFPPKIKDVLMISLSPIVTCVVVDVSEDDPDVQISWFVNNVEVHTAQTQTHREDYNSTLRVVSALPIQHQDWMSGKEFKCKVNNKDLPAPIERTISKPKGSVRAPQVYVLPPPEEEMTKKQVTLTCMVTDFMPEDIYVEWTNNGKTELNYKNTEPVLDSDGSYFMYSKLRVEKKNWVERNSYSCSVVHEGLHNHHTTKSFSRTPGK

[3] = target: T3, monkey MUC17 on FlpinCHO-cynoMUC17-D1 cells (monkey); experiment: FACS on FlpinCHO-cynoMUC17-D1 cells, MFI
T3 construct: On cells; also called recombinant cells overexpressing monkey MUC17

[4] = target: T4, human MUC17 fragment on FlpinCHO-huMUC17-D1 cells (human); experiment: FACS on FlpinCHO-huMUC17-D1 cells, MFI
T4 construct: On cells; also called cells overexpressing human MUC17

[5] = target: T5, human MUC17 on endogenous tumor cells (NUGC4, SNU16, ASPC1) (human); experiment: FACS on AspC-1 cells (endogenous human MUC17), MFI
T5 construct: whole, on cells; also called MUC17-positive tumor cells

[6] = target: T5, human MUC17 on endogenous tumor cells …; experiment: cell-based or functional assay
[7] = target: T6, human cell surface CD3 (Jurkat cells, human PBMCs) (human, UniProt P07766 23-207); experiment: FACS on naive human PBMCs (CD3), MFI
T6 construct: whole, on cells; CD3 is a multi-chain complex on the cell

[8] = target: T1, Human MUC17 ECD4131-his (His-tagged …); experiment: ELISA, human MUC17-his coated on the plate, OD450
[9] = target: T5, human MUC17 on endogenous tumor cells …; experiment: FACS on NUGC4 cells (endogenous human MUC17), MFI
[10] = target: T2, Cyno MUC17 ECD3577-mFc (mFc-tagged …); experiment: ELISA, cynomolgus MUC17-mFc coated on the plate, OD450
[11] = target: T5, human MUC17 on endogenous tumor cells …; experiment: FACS on SNU16 cells (endogenous human MUC17), MFI

T6 sequence (P07766 23-207): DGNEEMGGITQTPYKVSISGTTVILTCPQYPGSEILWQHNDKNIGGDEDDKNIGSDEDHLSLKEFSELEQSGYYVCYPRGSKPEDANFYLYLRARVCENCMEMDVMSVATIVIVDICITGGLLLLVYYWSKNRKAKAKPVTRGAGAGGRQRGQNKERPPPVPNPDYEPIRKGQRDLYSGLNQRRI

Kd [1]: 378 pM
koff [1]: 0.000138 s⁻¹
kon [1]: 364000 M⁻¹ s⁻¹
Kd [2]: 7110 pM
koff [2]: 0.00031 s⁻¹
kon [2]: 43600 M⁻¹ s⁻¹
EC50 (read off the curve) [3]: ~8000 pM
EC50 (read off the curve) [4]: ~1000 pM
EC50 (read off the curve) [5]: ~200 pM
EC50 (read off the curve) [7]: ~50000 pM
EC50 (read off the curve) [8]: ~50 pM
EC50 (read off the curve) [9]: ~500 pM
EC50 (read off the curve) [10]: ~70 pM
EC50 (read off the curve) [11]: ~200 pM
B1: Bis 58 (bispecific antibody, human IgG1, kappa)
heavy: EVQLVESGGGVVQPGRSLRLSCAASGFTFTDYYMSWVRQAPGKGLEWVAMSRNKAKGHTIEYSSSVKGRFTISRDNSKNTLYLQMNSLRAEDTAVYYCARDTYESYDGYFDVWGQGTTVTVSSASTKGPSVFPLAPSSKSTSGGTAALGCLVKDYFPEPVTVSWNSGALTSGVHTFPAVLQSSGLYSLSSVVTVPSSSLGTQTYICNVNHKPSNTKVDKKVEPKSCDKTHTCPPCPAPEAAGAPSVFLFPPKPKDTLMISRTPEVTCVVVDVSHEDPEVKFNWYVDGVEVHNAKTKPREEQYNSTYRVVSVLTVLHQDWLNGKEYKCKVSNKALPAPIEKTISKAKGQPREPQVYTLPPSREEMTKNQVSLWCLVKGFYPSDIAVEWESNGQPENNYKTTPPVLDSDGSFFLYSKLTVDKSRWQQGNVFSCSVMHEALHNHYTQKSLSLSPG
light: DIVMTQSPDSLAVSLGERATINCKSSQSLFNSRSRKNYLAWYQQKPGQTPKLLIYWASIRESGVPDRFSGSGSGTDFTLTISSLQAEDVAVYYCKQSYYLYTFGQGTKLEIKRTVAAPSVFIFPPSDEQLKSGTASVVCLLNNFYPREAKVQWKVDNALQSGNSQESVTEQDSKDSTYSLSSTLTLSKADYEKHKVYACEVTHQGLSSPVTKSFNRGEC
chain: EVQLVESGGGLVQPGGSLRLSCAASGFPSSRGTMAWFRQAPGKEREGVAFINSDGRTSYAESVKGRFTISRDNAKNSLYLQMNSLRAEDTAVYYCAASLLYLMTVNAAAYPYWGQGTMVTVSSGGGDKTHTCPPCPAPEAAGAPSVFLFPPKPKDTLMISRTPEVTCVVVDVSHEDPEVKFNWYVDGVEVHNAKTKPREEQYNSTYRVVSVLTVLHQDWLNGKEYKCKVSNKALPAPIEKTISKAKGQPREPQVYTLPPSREEMTKNQVSLSCAVKGFYPSDIAVEWESNGQPENNYKTTPPVLDSDGSFFLVSKLTVDKSRWQQGNVFSCSVMHEALHNHYTQKSLSLSPG
notes: Three-chain asymmetric MUC17xCD3 bispecific
PBMC-mediated in vitro tumor cell killing EC50, ASPC-1 [6]: 19.4 pM
PBMC-mediated in vitro tumor cell killing EC50, NUGC4 [6]: 27.1 pM
